Measured values: the DeepSol protein solubility set

assay: soluble on expression in E. coli; label from the status in PepcDB or PDB records

Sequence	soluble on expression in E. coli
EAIKWDKAPCRFCGTGCGVLVGTQQGRVVACQGDPDAPVNRGLNCIKGYFLPKIMYGKDRLTQPLLRMKNGKYDKEGEFTPITWDQAFDVMEEKFKTALKEKGPESIGMFGSGQWTIWEGYAASKLFKAGFRSNNIDPNARHCMASAVVGFMRTFGMDEPMGCYDDIEQADAFVLWGANMAEMHPILWSRITNRRLSNQNVTVAVLSTYQHRSFELADNGIIFTPQSDLVILNYIANYIIQNNAINQDFFSKHVNLRKGATDIGYGLRPTHPLEKAAKNPGSDASEPMSFEDYKAFVAEYTLEKTAEMTGVPKDQLEQLAQLYADPNKKVISYWTMGFNQHTRGVWANNLVYNLHLLTGKISQPGCGPFSLTGQPSACGTAREVGTFAHRLPADMVVTNEKHRDICEKKWNIPSGTIPAKIGLHAVAQDRALKDGKLNVYWTMCTNNMQAGPNINEERMPGWRDPRNFIIVSDPYPTVSALAADLILPTAMWVEKEGAYGNAERRTQFWRQQVQAPGEAKSDLWQLVQFSRRFKTEEVWPEDLLAKKPELRGKTLYEVLYATPEVSKFPVSELAEDQLNDESRELGFYLQKGLFEEYAWFGRGHGHDLAPFDDYHKARGLRWPVVNGKETQWRYSEGNDPYVKAGEGYKFYGKPDGKAVIFALPFEPAAEAPDEEYDLWLSTGRVLEHWHTGSMTRRVPELHRAFPEAVLFIHPLDAKARDLRRGDKVKVVSRRGEVISIVETRGRNRPPQGLVYMPFFDAAQLVNKLTLDATDPLSKETDFKKCAVKLEKV	soluble
GMKSAPDWIAHPDTPYLLIDEAKLKSNINYLKQRVESLGSHLRPHLKTLRTLEAAGYLLDSKSAPATVSTLAEAEAYAKAGYTDLLYAVGIAPAKLKRVAALRQQGINLHILLDNITQAQAVVDYAAEFGQDFSVFIEIDSDDHRGGIKPSDSKLLTIAKTLGEHFTGLMTHAGGSYACNTEQGLKNFAKQECDAVRIARNNLETAGIHCAITSVGSTPTAHFGEDFSDISEVRAGVYTTFDLVMKNIGVCDFSHIAMSVVTTVIGHNKEKNWLLTDSGWMALSRDSGTAGQNRDFGYGQVCKIDGSVLDGLCVNSTSQEHGVIELSDAYQLEDFPVGHQLRIMPNHACATAAMHPVYHVLMSDGSHNTWQRITGW	soluble
MKASFKGKFDVDKSGSVASLTFNAGNAKLRATMTDASFVAGPSFNGLSLAVEKPGFFIIDYNVPKKDVRFQFMNTIRIAEKPLNLTYIHMRGDNRTIVDGSFVIDPANKLSANYMVGTKNCKLKYTYVHGGIATFEPCYDVAKNMWDFAISHKLYGGDNLKATYQTSSKMLGLEWSNNSKSTGSFKVCASMNLAEELKPPKLTAETTWNLEL	soluble
KLSSSEKNAILNAVSWYDADAEKVVKGTTKLAGDKLKELLAYLGCKEKELGDYGYFATEKKGEYLEYETESNLRDTENVPLKEAIYTYFLREVKPHVGEAWINLDATKIGYEISFNKYFYKHKPLRSIEDVTADILALEKESDGLIAEILGL	not soluble
MGSDKIHHHHHHMEPTFQPSRSAIPVLSVSGVGKTYAEPVLADVTLTLAPGEALALTGENGAGKSTLSKIIGGLVDPTTGTMQLGGQAYAPASRTQAEALGVRMVMQELNLLPTLTVAENLFLNRLPRRFGIIDRARLHDDAQAAMARVGLDAIDPDTPVGALGIGHQQMVEIARNLIGDCRVLILDEPTAMLTAREVELLFEQIDRLKAHGVAIVYISHRLDELARVAERVAVLRDGRLVHVGDMAATTSDGLVTLMVGREIGEHIDLGPRRIGAPRLAVSGMTRGTAVQDVSLEVRSGEIFGISGLIGAGRTELLRLIYGADTPDAGMISVGDPLKPARIASPVDAVRHGIALITEDRKGEGLLLSQSVTSNVSLGQLEQLARGGIVNTARETALAEQQIDALRIRTHGAAQPVGELSGGNQQKVVIGRWLARDMGVLLFDEPTRGIDVGAKFEIYTLMGALARDGRALVVVSSDLRELMLICDRIGVMSAGRMTAVFERGNWTQDALLAAAFAGFGRDALPEGARHLDAQAAPRAASGTSTTGRQQ	not soluble
MLMLEREKLARLIKKRSLKVADEPVFKLSSGKLSRYYVDLKQITFDPEGDYLIGKAMYELVKEFNPDACGGLTLGADPIAYAIAFVSLMDSNPIKPFVVRKEPKGHGMKRQIEGLLNPGERVAVLEDVVTTGSSALKAVKACREYGLEVIGVFAVVDREEGGRENIEKEGIPLYSLFKLSELL	soluble
MKSLPYTIALLFCGLIIVSMAAKGHSTDTDESVQKWEQLAWSKIQDEYKGASFSDYAYMGRTEVNDQQTKDVFRVTVRQKDDTFSVRAEVYFHPVTNHMISINVFRLMAGDPLEHHHHHH	soluble
